{"source": "paper PMC3404891", "molecules": {"B1": {"name": "extended anti-EGFR RNA aptamer hybridized to surface-anchored capture ssDNA (mixed)", "RNA": "GGCGCUCCGACCUUAGUCUCUGUGCCGCUAUAAUGCACGGAUUUAAUCGCCGUAGAAAAGCAUGUCAAAGCCGGAACCGUGUAGCACAGCAGAGAAUUAAAUGCCCGCCAUGACCAG", "DNA": "CTGGTCATGGCGGGCATTTAATTC", "modifications": "5'-amine on DNA strand S3"}, "B2": {"name": "extended mutant (scrambled) aptamer hybridized to surface-anchored capture ssDNA (mixed)", "RNA": "GGCGCUCCGACCUUAGUCUCUGUUCCCACAUCAUGCACAAGGACAAUUCUGUGCAUCCAAGGAGGAGUUCUCGGAACCGUGUAGCACAGCAGAGAAUUAAAUGCCCGCCAUGACCAG", "DNA": "CTGGTCATGGCGGGCATTTAATTC", "modifications": "5'-amine on DNA strand S3"}}, "key": {"EGF (Homo sapiens)": {"biological_target": "EGF (Homo sapiens) (UniProt P01133)", "sequence (P01133 971-1023)": "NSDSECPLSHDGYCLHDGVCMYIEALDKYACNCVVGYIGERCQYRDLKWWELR", "experiment": "functional ELISA", "details": "cited from earlier work"}, "[1]": {"biological_target": "T1, recombinant human EGFR/ErbB1 Fc Chimera (human, UniProt P00533 25-645)", "experiment": "surface capture, Sypro Ruby fluorescence"}, "[2]": {"biological_target": "T1, recombinant human EGFR/ErbB1 Fc Chimera", "experiment": "nanogap break-junction I-V measurement"}}, "data": [{"molecule": "EGFR/ErbB1 Fc chimera (from UniProt P00533)", "values": [{"measurement": "Kd", "setting": "EGF (Homo sapiens)", "result": "< 8", "unit": "nM"}]}, {"molecule": "B1", "values": [{"measurement": "binding result", "setting": "[1]", "result": "binds"}]}, {"molecule": "B2", "values": [{"measurement": "binding result", "setting": "[2]", "result": "no binding"}]}]}
